Here are results for 1 substance from patent publication US20190309092A1.

What is called Kd is the concentration at which binding is half-saturated.

In this assay the target is TNFα (UniProt P01375). Nature of the assay: SPR, Biacore T100, single-cycle kinetics, 1:1 Langmuir fit; Target 1 column. Background: SPR reads the build-up and loss of mass on a sensor chip optically.
Chain of UniProt P01375 (P01375 77-233 limits assumed): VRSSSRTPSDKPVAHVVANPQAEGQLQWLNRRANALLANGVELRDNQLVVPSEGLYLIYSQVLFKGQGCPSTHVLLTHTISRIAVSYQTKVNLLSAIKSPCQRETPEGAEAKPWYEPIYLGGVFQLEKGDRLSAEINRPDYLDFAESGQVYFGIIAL

With Humira IgG(Full) (antibody), the Kd worked out at 0.0643 nM.
